In patent US20240092924A1:

Target: wild-type human sodium taurocholate cotransporting polypeptide (human NTCP) (human) (UniProt Q14973)
Test: cell-based or functional assay

Sequence of wild-type human sodium taurocholate cotransporting polypeptide (human NTCP) (human) (Q14973 whole entry): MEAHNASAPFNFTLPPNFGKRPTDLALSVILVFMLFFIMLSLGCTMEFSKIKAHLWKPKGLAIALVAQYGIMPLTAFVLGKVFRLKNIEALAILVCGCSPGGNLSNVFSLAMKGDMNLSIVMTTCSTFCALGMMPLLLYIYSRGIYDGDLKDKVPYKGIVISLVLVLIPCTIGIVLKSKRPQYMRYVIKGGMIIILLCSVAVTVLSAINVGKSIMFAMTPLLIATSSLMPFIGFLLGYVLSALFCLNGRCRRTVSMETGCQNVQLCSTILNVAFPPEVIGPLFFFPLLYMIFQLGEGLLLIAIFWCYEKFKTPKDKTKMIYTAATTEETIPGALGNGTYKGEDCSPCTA

Question: With preS1 peptide as the substance, how does the [3H]-taurocholic acid uptake by HepG2-human NTCP cells, at 1000 nM (fraction of uptake remaining) read?
Answer: 0.05

Question: What about the inhibition of [3H]-taurocholic acid uptake by human NTCP-expressing HepG2, at 100 nM of the same substance?
Answer: 60%

Question: And the inhibition of [3H]-taurocholic acid uptake by human NTCP-expressing HepG2, at 1000 nM?
Answer: 96%

Question: What about the suppression of bile acid uptake into a hepatocyte cell line, at 1000 nM (FIG. 3 legend) of the same substance?
Answer: < 90%
